Test results taken from the supplement of paper PMC9112550, “Optimization of the antimicrobial peptide Bac7 by deep mutational scanning” (BMC Biology, 2022).

Test system: Escherichia coli TOP10
Assay: shrunken log2 fold change of peptide-encoding DNA abundance (4.5 h post-induction vs induction); higher = less antimicrobial activity (less host growth inhibition)
Settings: time post-induction: 4.5 h; library: site-saturation at positions 5, 18, 19, 20
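Further: peptides expressed intracellularly from a pBAD plasmid library in pooled LB shake-flask culture, induced with 0.3% L-arabinose, DNA abundance read by NGS, three biological replicates, DESeq2 with apeglm shrinkage.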

Sequence	shrunken log2 fold change
RRIRCRPPRLPRPRPRPKLHPRP	-0.113
RRIRGRPPRLPRPRPRPPPTPRP	1.47
RRIRLRPPRLPRPRPRPEVSPRP	0.254
RRIRHRPPRLPRPRPRPASFPRP	-0.215
RRIRWRPPRLPRPRPRPSKAPRP	-0.287
RRIRVRPPRLPRPRPRPNIHPRP	-0.556
RRIRARPPRLPRPRPRPSMCPRP	-0.081
RRIRKRPPRLPRPRPRPFIKPRP	-0.0863
RRIRGRPPRLPRPRPRPYYEPRP	0.0278
RRIRKRPPRLPRPRPRPWPTPRP	0.103
RRIRTRPPRLPRPRPRPHIPPRP	-0.769
RRIRCRPPRLPRPRPRPVEIPRP	-0.296
RRIRYRPPRLPRPRPRPCCWPRP	0.0911
RRIRMRPPRLPRPRPRPTRIPRP	0.447
RRIRQRPPRLPRPRPRPSGQPRP	-0.0485
RRIRWRPPRLPRPRPRPFKNPRP	-0.274
RRIRNRPPRLPRPRPRPEIGPRP	0.195
RRIRHRPPRLPRPRPRPYMCPRP	-0.536
RRIRHRPPRLPRPRPRPTMRPRP	0.402
RRIRLRPPRLPRPRPRPIFYPRP	-0.223
RRIRWRPPRLPRPRPRPMCKPRP	-0.0527
RRIRSRPPRLPRPRPRPTLDPRP	0.47
RRIRQRPPRLPRPRPRPAGKPRP	0.0246
RRIRARPPRLPRPRPRPRFRPRP	0.459
RRIRHRPPRLPRPRPRPMYSPRP	-0.263

Sequence	shrunken log2 fold change
RRIRDRPPRLPRPRPRPLCCPRP	0.0616
RRIRIRPPRLPRPRPRPPRIPRP	0.333
RRIRCRPPRLPRPRPRPSIKPRP	-0.597
RRIRGRPPRLPRPRPRPKRAPRP	1.11
RRIRLRPPRLPRPRPRPSMMPRP	-0.358
RRIRVRPPRLPRPRPRPCAMPRP	-0.16
RRIRERPPRLPRPRPRPPCYPRP	-0.396
RRIRCRPPRLPRPRPRPMTPPRP	0.377
RRIRWRPPRLPRPRPRPCVCPRP	0.222
RRIRDRPPRLPRPRPRPKAGPRP	0.143
RRIRQRPPRLPRPRPRPPLQPRP	0.218
RRIRARPPRLPRPRPRPTALPRP	0.513
RRIRDRPPRLPRPRPRPYQVPRP	-0.183
RRIRVRPPRLPRPRPRPQFGPRP	-0.018
RRIRLRPPRLPRPRPRPYDKPRP	-0.951
RRIRFRPPRLPRPRPRPPDIPRP	-0.329
RRIRYRPPRLPRPRPRPLDCPRP	-0.068
RRIRLRPPRLPRPRPRPELAPRP	0.0176
RRIRRRPPRLPRPRPRPYFFPRP	-0.0972
RRIRWRPPRLPRPRPRPMVPPRP	-0.0589
RRIRHRPPRLPRPRPRPNIMPRP	-0.596
RRIRYRPPRLPRPRPRPKKTPRP	-0.0419
RRIRERPPRLPRPRPRPYRWPRP	-0.0887
RRIRIRPPRLPRPRPRPWFAPRP	-0.31
RRIRARPPRLPRPRPRPVFFPRP	0.448

Sequence	shrunken log2 fold change
RRIRGRPPRLPRPRPRPHCQPRP	-0.058
RRIRQRPPRLPRPRPRPMQRPRP	0.416
RRIRRRPPRLPRPRPRPVDMPRP	0.0522
RRIRDRPPRLPRPRPRPRCWPRP	0.923
RRIRMRPPRLPRPRPRPENHPRP	0.0929
RRIRCRPPRLPRPRPRPWFVPRP	-0.629
RRIRYRPPRLPRPRPRPRAQPRP	0.174
RRIRKRPPRLPRPRPRPQQYPRP	0.183
RRIRRRPPRLPRPRPRPNATPRP	0.703
RRIRCRPPRLPRPRPRPLFMPRP	-0.368
RRIRGRPPRLPRPRPRPEMTPRP	3.26
RRIRRRPPRLPRPRPRPLKKPRP	0.169
RRIRARPPRLPRPRPRPPQFPRP	0.953
RRIRYRPPRLPRPRPRPAEWPRP	0.00902
RRIRYRPPRLPRPRPRPMWYPRP	-0.884
RRIRRRPPRLPRPRPRPSAWPRP	0.462
RRIRTRPPRLPRPRPRPEMCPRP	-0.00146
RRIRPRPPRLPRPRPRPYTIPRP	0.00679
RRIRFRPPRLPRPRPRPCYGPRP	-0.0414
RRIRYRPPRLPRPRPRPIHTPRP	-0.379
RRIRCRPPRLPRPRPRPIDPPRP	-0.18
RRIRYRPPRLPRPRPRPCDVPRP	-0.739
RRIRWRPPRLPRPRPRPRAAPRP	1.04
RRIRYRPPRLPRPRPRPHLDPRP	-0.185
RRIRFRPPRLPRPRPRPTSQPRP	-0.0191

Sequence	shrunken log2 fold change
RRIRQRPPRLPRPRPRPMGTPRP	-0.00257
RRIRERPPRLPRPRPRPLIDPRP	-0.352
RRIRWRPPRLPRPRPRPWSLPRP	0.0526
RRIRLRPPRLPRPRPRPELGPRP	0.0397
RRIRDRPPRLPRPRPRPCYFPRP	-0.31
RRIRHRPPRLPRPRPRPNNRPRP	-0.329
RRIRERPPRLPRPRPRPKTRPRP	-0.0349
RRIRGRPPRLPRPRPRPFCQPRP	0.0716
RRIRMRPPRLPRPRPRPKPNPRP	0.954
RRIRIRPPRLPRPRPRPQIAPRP	-0.0185
RRIRARPPRLPRPRPRPRYWPRP	0.213
RRIRNRPPRLPRPRPRPTNVPRP	0.0366
RRIRNRPPRLPRPRPRPCKQPRP	-0.0218
RRIRVRPPRLPRPRPRPADWPRP	0.379
RRIRERPPRLPRPRPRPEPFPRP	-0.0469
RRIRQRPPRLPRPRPRPACAPRP	0.587
RRIRCRPPRLPRPRPRPSLYPRP	-0.518
RRIRKRPPRLPRPRPRPDWMPRP	0.00417
RRIRYRPPRLPRPRPRPQYHPRP	-0.873
RRIRTRPPRLPRPRPRPVCNPRP	-0.345
RRIRRRPPRLPRPRPRPCWLPRP	0.202
RRIRERPPRLPRPRPRPPFFPRP	0.0761
RRIRCRPPRLPRPRPRPPGYPRP	0.422
RRIRFRPPRLPRPRPRPNPGPRP	0.159
RRIRGRPPRLPRPRPRPQTDPRP	0.381

Sequence	shrunken log2 fold change
RRIRLRPPRLPRPRPRPDWEPRP	0.0332
RRIRCRPPRLPRPRPRPLVNPRP	-0.841
RRIRWRPPRLPRPRPRPINWPRP	0.0481
RRIRRRPPRLPRPRPRPRARPRP	0.618
RRIRLRPPRLPRPRPRPYDWPRP	-0.218
RRIRIRPPRLPRPRPRPEFKPRP	0.387
RRIRKRPPRLPRPRPRPQSLPRP	-0.017
RRIRWRPPRLPRPRPRPKASPRP	-0.00939
RRIRFRPPRLPRPRPRPIVSPRP	0.303
RRIRQRPPRLPRPRPRPKCRPRP	-0.0264
RRIRNRPPRLPRPRPRPKIRPRP	-0.0344
RRIRNRPPRLPRPRPRPDDLPRP	-0.000687
RRIRQRPPRLPRPRPRPDMCPRP	-0.225
RRIRLRPPRLPRPRPRPHIVPRP	-0.105
RRIRPRPPRLPRPRPRPLCKPRP	0.041
RRIRSRPPRLPRPRPRPICLPRP	0.259
RRIRWRPPRLPRPRPRPRHCPRP	0.0392
RRIRIRPPRLPRPRPRPRIFPRP	-1.13
RRIRLRPPRLPRPRPRPASNPRP	-0.124
RRIRYRPPRLPRPRPRPWYFPRP	-0.15
RRIRGRPPRLPRPRPRPAHFPRP	0.238
RRIRLRPPRLPRPRPRPCWLPRP	0.0345
RRIRLRPPRLPRPRPRPFAIPRP	0.0494
RRIRPRPPRLPRPRPRPADIPRP	0.142
RRIRMRPPRLPRPRPRPEFIPRP	0.01
